From patent publication US20230235004A1 (published 2023)
Read-outs that look alike come from different tables or passages of the source.

T1: human MAdCAM protein (human, UniProt Q13477 19-317, limits assumed)
T1 construct: also called soluble monomeric human MAdCAM; recombinant human MAdCAM
T1 sequence (looked up): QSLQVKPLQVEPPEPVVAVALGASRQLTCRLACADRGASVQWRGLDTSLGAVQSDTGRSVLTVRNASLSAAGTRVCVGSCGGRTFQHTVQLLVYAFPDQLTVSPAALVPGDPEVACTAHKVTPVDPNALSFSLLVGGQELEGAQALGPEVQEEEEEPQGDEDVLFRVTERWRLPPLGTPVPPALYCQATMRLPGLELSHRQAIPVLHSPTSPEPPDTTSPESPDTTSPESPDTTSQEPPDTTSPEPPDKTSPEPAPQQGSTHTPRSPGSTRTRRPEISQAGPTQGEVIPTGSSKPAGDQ

T2: human MAdCAM expressed on cells (human, UniProt Q13477 19-382)
T2 construct: whole, on cells
T2 sequence (looked up): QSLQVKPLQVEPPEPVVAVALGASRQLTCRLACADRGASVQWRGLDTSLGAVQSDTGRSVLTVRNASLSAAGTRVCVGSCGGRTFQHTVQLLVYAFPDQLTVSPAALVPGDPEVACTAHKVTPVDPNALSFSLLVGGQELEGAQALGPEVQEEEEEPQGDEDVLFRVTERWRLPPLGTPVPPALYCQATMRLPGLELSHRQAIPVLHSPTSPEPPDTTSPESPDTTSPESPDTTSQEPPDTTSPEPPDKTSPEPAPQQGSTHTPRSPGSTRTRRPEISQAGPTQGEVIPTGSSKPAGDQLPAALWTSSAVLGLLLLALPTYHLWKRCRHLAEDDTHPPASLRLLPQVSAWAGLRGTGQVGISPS

T3: mouse MAdCAM expressed on cells (mouse, UniProt Q61826 22-405)
T3 construct: whole, on cells
T3 sequence (looked up): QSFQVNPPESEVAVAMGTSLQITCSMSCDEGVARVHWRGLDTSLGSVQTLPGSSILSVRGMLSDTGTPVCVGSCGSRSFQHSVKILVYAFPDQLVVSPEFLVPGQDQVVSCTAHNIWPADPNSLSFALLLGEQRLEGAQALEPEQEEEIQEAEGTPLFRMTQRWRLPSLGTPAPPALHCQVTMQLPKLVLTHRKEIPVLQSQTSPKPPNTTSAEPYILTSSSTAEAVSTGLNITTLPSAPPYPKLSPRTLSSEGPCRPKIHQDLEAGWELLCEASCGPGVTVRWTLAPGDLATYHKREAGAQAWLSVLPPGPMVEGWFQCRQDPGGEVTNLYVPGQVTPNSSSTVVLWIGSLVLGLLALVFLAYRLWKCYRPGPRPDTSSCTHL

T4: recombinant mouse MAdCAM-1 (mouse, UniProt Q61826 22-364, limits assumed)
T4 construct: also called mMAdCAM-1
T4 sequence (looked up): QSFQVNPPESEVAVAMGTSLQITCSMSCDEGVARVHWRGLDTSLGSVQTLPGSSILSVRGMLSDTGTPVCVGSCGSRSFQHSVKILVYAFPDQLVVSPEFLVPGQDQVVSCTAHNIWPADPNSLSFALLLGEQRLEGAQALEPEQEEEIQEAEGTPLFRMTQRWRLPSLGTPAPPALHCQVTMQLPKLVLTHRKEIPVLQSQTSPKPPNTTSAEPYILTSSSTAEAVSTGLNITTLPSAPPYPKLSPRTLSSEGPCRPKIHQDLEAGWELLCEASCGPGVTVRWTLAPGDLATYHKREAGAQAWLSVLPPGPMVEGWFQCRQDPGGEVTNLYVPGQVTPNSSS


What was measured:
human MAdCAM protein [1] = target: T1, human MAdCAM protein; test: Octet
[2] = target: T2, human MAdCAM expressed on cells; test: cell binding
[3] = target: T3, mouse MAdCAM expressed on cells; test: cell binding
human MAdCAM protein [4] = target: T1, human MAdCAM protein; test: Octet; remark: listed apart in the source
[5] = target: T4, recombinant mouse MAdCAM-1; test: Octet
[6] = target: T2, human MAdCAM expressed on cells; test: cell binding; remark: listed apart in the source
[7] = target: T3, mouse MAdCAM expressed on cells; test: cell binding; remark: listed apart in the source
[8] = target: T4, recombinant mouse MAdCAM-1; test: Octet; remark: listed apart in the source

Binder	binding result (human MAdCAM protein [1])	binding result [2]	binding result [3]	binding result (human MAdCAM protein [4])	binding result [5]	binding result [6]	binding result [7]	binding result [8]
MAdCAM antibody Table 1 clone 1 (scFv) scFv: EVQLLESGGGLVQPGGSLRLSCAASGFTFSSYGMHWVRQAPGKGLEWVAVISDDGSDKYYADSVKGRFTISRDNSKNTLYLQMNSLRAEDTAVYYCTTSKYYYYYGMDVWGQGTTVTVSSGGGGSGGGGSGGGGSGGGGSDIQMTQSPSSLSASVGDRVTITCQASQDISKSLNWYQQKPGKAPKLLIYAASSLQSGVPSRFSGSGSGTDFTLTISSLQPEDFATYYCQQGYSTPLTFGGGTKVEIK	binds	binds	binds	–	–	–	–	–
MAdCAM antibody Table 1 clone 64 (scFv) scFv: EVQLLESGGGLVKPGGSLRLSCAASGFAFSSHWMHWVRQAPGKGLEWVAGTSGSGESRDYADFVKGRFTISRDDSKNTLYLQMNSLKTEDTAVYYCARETYYYYYMDVWGKGTTVTVSSGGGGSGGGGSGGGGSGGGGSDIQMTQSPSSLSASVGDRVTITCRASQGISNYLAWYQQKPGKAPKLLIYDAANLEGGVPSRFSGSGSGTDFTLTISSLQPEDFATYYCQQSDIFPPTFGQGTKVEIK	binds	binds	binds	–	–	–	–	–
MAdCAM antibody Table 1 clone 66 (scFv) scFv: EVQLLESGGGLVQPGGSLRLSCAASGFTFSSYWMHWVRQAPGKGLEWVAAISYDGKYKDYEDSVKGRFTISRDNSKNTLYLQMNSLRAEDTAVYYCARENKQWLASFDYWGQGTLVTVSSGGGGSGGGGSGGGGSGGGGSDIQMTQSPSSLSASVGDRVTITCQASQDISNFVNWYQQKPGKAPKLLIYAANLRSGVPSRFSGSGSGTDFTLTISSLQPEDFATYYCQQANSFPVTFGPGTKVDIK	binds	binds	binds	–	–	–	–	–
MAdCAM Antibody Table 2 clone 46 (antibody, V domains shown, IgG format) VH: EVQLLESGGGLVQPGGSLRLSCAASGFSFSSYTMNWVRQAPGKGLEWVSFITSSSRTIYYADSVKGRFTISRDNSKNTLYLQMNSLRAEDTAVYYCARDRRGDYGDSWYFDLWGRGTLVTVSS VL: EIVMTQSPATLSVSPGERATLSCRASQSVRNYLAWYQQKPGQAPRLLIYGASTRATGIPARFSGSGSGTEFTLTISSLQSEDFAVYYCQQYGSSPLTFGGGTKVEIK	–	–	–	binds	no binding	binds	no binding	–
MAdCAM Antibody Table 2 clone 79 (antibody, V domains shown, IgG format) VH: EVQLLESGGGLVKPGGSLRLSCAASGFTFDDYAMHWVRQAPGKGLEWVASITSSSAFIDYAASVKGRFTISRDDSKNTLYLQMNSLKTEDTAVYYCARERVDWNSYFDLWGRGTLVTVSS VL: EIVMTQSPATLSVSPGERATLSCRASQGISNSYLAWYQQKPGQAPRLLIYGASTRATGIPARFSGSGSGTEFTLTISSLQSEDFAVYYCQQYYTYPPTFGPGTKVDIK	–	–	–	binds	binds	binds	binds	–
MAdCAM antibody Table 1 clone 65 (scFv) scFv: QVQLVQSGAEVKKPGASVKVSCKASGYTFTRHWIHWVRQAPGQGLEWMGWINVKTGGAGYAQKFQGRVTMTRDTSTSTVYMELSSLRSEDTAVYYCARESSGWYGTDVWGQGTTVTVSSGGGGSGGGGSGGGGSGGGGSDIQMTQSPSSLSASVGDRATITCRASQSISNYLAWYQQKPGKAPKLLIYAASSLQSGVPSRFSGSGSGTDFTLTISSLQPEDFATYYCQQSNSFPLTFGGGTKVEIK	binds	binds	binds	–	–	–	–	–
MAdCAM Antibody Table 2 clone 74 (antibody, V domains shown, IgG format) VH: QVQLVQSGAEVKKPGASVKVSCKASGYTFTGYYMHWVRQAPGQGLEWMGIINPSGGNTKYAQKFQGRVTMTRDTSTSTVYMELSSLRSEDTAVYYCTTADYYYYMDVWGKGTTVTVSS VL: DIQMTQSPSSLSASVGDRVTITCRASQGISNYLAWYQQKPGKAPKLLIYAASSLQSGVPSRFSGSGSGTDFTLTISSLQPEDFATYYCQQYYSNADFGQGTKVEIK	–	–	–	binds	no binding	binds	no binding	–
MAdCAM antibody Table 1 clone 61 (scFv) scFv: EVQLLESGGGLVQPGGSLRLSCAASEFTFSNAWMSWVRQAPGKGLEWVASISSTSAYIDYADSVKGRFTISRDNSKNTLYLQMNSLRAEDTAVYYCAREVVGATTFDYWGQGTLVTVSSGGGGSGGGGSGGGGSGGGGSDIQMTQSPSSLSASVGDRVTITCRASQSISTWLAWYQQKPGKAPKLLIYAASSLQSGVPSRFSGSGSGTDFTLTISSLQPEDFATYYCQQANAFPPTFGQGTRLEIK	binds	binds	binds	–	–	–	–	–
MAdCAM Antibody Table 2 clone 75 (antibody, V domains shown, IgG format) VH: EVQLLESGGGLVQPGGSLRLSCAASGFTFSDFWMHWVRQAPGKGLEWISYISGDSGYTNYADSVKGRFTISRDNSKNTLYLQMNSLRAEDTAVYYCARDRPYYYYMDVWGKGTTVTVSS VL: DIQMTQSPSSLSASVGDRVTITCRASQSVSRSLAWYQQKPGKAPKLLIYAASSLQSGVPSRFSGSGSGTDFTLTISSLQPEDFATYYCQQYKSYPVTFGQGTKVEIK	–	–	–	binds	binds	binds	binds	–
MAdCAM Antibody Table 2 clone 22 (antibody, V domains shown, IgG format) VH: EVQLLESGGGLVQPGGSLRLSCAASGFTFDDYAMHWVRQAPGKGLEWVSGISWNSGSIGYADSVKGRFTISRDNSKNTLYLQMNSLRAEDTAVYYCAKDIVAAGHYYYGMDVWGQGTTVTVSS VL: DIQMTQSPSSLSASVGDRVTITCQASQDISNYLNWYQQKPGKAPKLLIYDASNLETGVPSRFSGSGSGTDFTLTISSLQPEDFATYYCQQSYSTPLTFGGGTKVEIK	–	–	–	binds	no binding	binds	no binding	–
MAdCAM Antibody Table 2 clone 65 (antibody, V domains shown, IgG format) VH: QVQLVQSGAEVKKPGASVKVSCKASGYTFTSYDINWVRQAPGQGLEWMGWMNPNSGNTGYAQKFQGRVTMTRDTSTSTVYMELSSLRSEDTAVYYCAKDSDYSNLLWDYWGQGTLVTVSS VL: DIQMTQSPSSLSASVGDRVTITCRASQDITNDLGWYQQKPGKAPKLLIYQASSLESGVPSRFSGSGSGTDFTLTISSLQPEDFATYYCQQSYTIPLTFGQGTKVEIK	–	–	–	binds	no binding	binds	no binding	–
MAdCAM Antibody Table 2 clone 23 (antibody, V domains shown, IgG format) VH: EVQLLESGGGLVQPGGSLRLSCAASGFTFDDYAMHWVRQAPGKGLEWVSYIDTSSSHLYYADSVKGRFTISRDNSKNTLYLQMNSLRAEDTAVYYCARDEAAAGYYGMDVWGQGTTVTVSS VL: DIQMTQSPSSLSASVGDRVTITCQAGQDISNYLNWYQQKPGKAPKLLIYDASNLETGVPSRFSGSGSGTDFTLTISSLQPEDFATYYCQQTYSTPITFGQGTKLEIK	–	–	–	binds	no binding	binds	no binding	–
MAdCAM antibody Table 1 clone 19 (scFv) scFv: EVQLLESGGGLVQPGGSLRLSCAASGFTFDDYAMHWVRQAPGKGLEWVSGISWNSGSIGYADSVKGRFTISRDNSKNTLYLQMNSLRAEDTAVYYCAKDIVAAGHYYYGMDVWGQGTTVTVSSGGGGSGGGGSGGGGSGGGGSDIQMTQSPSSLSASVGDRVTITCQASQDISNYLNWYQQKPGKAPKLLIYDASNLETGVPSRFSGSGSGTDFTLTISSLQPEDFATYYCQQSYSTPLTFGGGTKVEIK	binds	binds	no binding	–	–	–	–	no binding
